{"source": "patent US20240218041A1", "about": "“MOLECULAR DESIGN OF GLUCOSE SENSORS IN GLUCOSE-RESPONSIVE INSULIN ANALOGUES” (THE TRUSTEES OF INDIANA UNIVERSITY, priority 2021, published 2024)", "key": {"[1]": {"test_system": "IR autophosphorylation and downstream p-AKT/AKT, p-FOXO1/FOXO1, p-GSK-3/GSK-3", "test": "Western blot signaling assays in HepG2 cells", "type": "cell-based, human", "method": "Signal propagation was probed via a cytoplasmic kinase cascade and changes in metabolic gene expression in HepG2 cells. […] An overview of IR autophosphorylation (probed by anti-pTyr IR antibodies) and downstream phosphorylation of Ser-Thr protein kinase AKT (protein kinase B; ratio p-AKT/AKT), forkhead transcription factor 1 (p-FOXO1/FOXO1), and glycogen synthase kinase-3 (p-GSK-3/GSK-3) at a single hormone dose (50 nM) was provided by Western blot (WB).\nSignaling assays in a mammalian cell line. HepG2 cell line (ATCC) were cultured in DMEM with 10% FBS, 1% penicillin/streptomycin per vendor's instruction. After 70-75% cell confluence, cells were serum-starved for 24 h and then exposed to medium containing an insulin analogue (each at a protein concentration of 50 nM). After lysis in RIPA buffer (containing protease- and phosphatase-inhibitor cocktails; Roche), the total protein concentrations in the lysate was determined by BCA assay (Thermo). […] Briefly, for p-IR/IR blotting, samples were probed by insulin receptor β (4B8) antibody (CST antibodies unless otherwise stated) or an equal mixture of anti-phospho-insulin receptor β (Tyr1150/1151); phospho-insulin receptor (Tyr1158) antibody (Thermo); phospho-insulin receptor (Tyr1334) antibody (Thermo); phospho-insulin receptor β (Tyr1345) monoclonal antiserum; and anti-phospho-insulin receptor (phospho-Tyr972) antibody (Abcam). […]"}, "[2]": {"test_system": "PEPCK, ChREBP and SREBP gene expression in HepG2 cells", "test": "Real-time qPCR assays of metabolic gene regulation in HepG2 cells", "type": "cell-based, human", "method": "Cell culture. Human hepatocellular carcinoma cell line HepG2 was cultured in Dulbecco's Modified Eagle Medium (DMEM), supplemented with 10% fetal bovine serum (FBS), 1% penicillin/streptomycin as recommended by the American Type Culture Collection. A protocol employing 24-h serum starvation wherein FBS was applied at 70-75% confluence. After starvation, cells were treated in parallel with a set of insulin analogues in serum-free medium.\nReal-time qPCR assays. Following serum starvation, HepG2 cells were treated with medium containing an insulin analogue (50 nM) for 8 h. In studies related to possible glucose responsiveness and lipid metabolism, the cells were treated with analogues for 3 or 4 h in media containing either low or normal glucose concentrations. Readouts were provided by downregulation of PEPCK and G6P and upregulation of ChREBP and SREBP. mRNA (messenger ribonucleic acid) abundances were measured in triplicate by quantitative polymerase chain reaction (qPCR). Samples were prepared as described by the vendor (One-Step rt-PCR reagent kits; Bio-Rad)."}, "insulin receptor": {"target": "insulin receptor (Homo sapiens, UniProt P06213)", "test": "In-cell pIR immunoblotting (pIR/IR phosphorylation, 96-well plate assay) in HepG2 cells", "type": "cell-based", "set-up": "endogenous in cells; host or cells: HepG2 (human hepatocellular carcinoma; ATCC)", "conditions": "for glucose-dependent activity in HepG2 cells in culture: as described in Chen, Y.-S., et al. (2021); for monosaccharide dependence of biological activity (pIR/IR phosphorylation): ±50 mM glucose or ±50 mM fructose", "method": "After starvation, cells were treated in parallel with a set of insulin analogues in serum-free medium.\nIn-cell pIR immunoblotting. This cell-based assay probed insulin-dependent IR activation via fluorescent readouts. HepG2 cells were seeded (˜8000 cells/well) into a 96-well black plate with clear bottom and cultured (Fisher). After serum starvation in 100 μl plain Hanks' Balanced Salt Solution (HBSS) for 2 h at 37° C., serial analogue dilutions (100 μl) were applied to each well; cells were then incubated for 20 min at 37° C. After removing medium, 150 μl of 3.7% formaldehyde (Fisher) was added to each well, and plates incubated for 20 min at 37° C. 200 μl of 0.1% Triton-X-100 (Sigma) was then added to permeabilize the cells, followed by their fixation by 100-μl Odyssey Blocking Buffer (LI-COR). A blocking procedure was applied for 1 h at room temperature on an orbital shaker. Fixed cells were then exposed to the primary antibody (10 μL anti-pTyr 4G10 (Sigma) into 20 ml Blocking Buffer) overnight at 4° C. The secondary antibody (anti-mouse-IgG-800-CW antibody (Sigma) in 25 ml Blocking Buffer) was added after a wash. pTyr was detected via 800 nm emission. DRAQ5 (Fisher) was also applied to enable measurement of cell number via 700 nm emission. The fluorescence signals were detected on a LI-COR Infrared Imaging system (Odyssey) under settings as follows: offset 4 mm with setting “Intensity-Auto.”"}, "[3]": {"conditions": "in vivo; cited from earlier work"}}}
{"substance": "FRI: insulin lispro with meta-fluoro-PBA on the α-amino group of GlyA1, 3,4-dihydroxybenzoic acid on LysB28, and HisA8", "values": [{"measurement": "signaling activity", "setting": "[1]; in the absence of fructose, 50 nM", "result": "low"}, {"measurement": "fructose dependence of signaling (IR autophosphorylation, p-AKT/AKT, p-FOXO1/FOXO1, p-GSK-3/GSK-3)", "setting": "[1]; single hormone dose 50 nM, HepG2 cells", "result": "fructose-dependent signaling"}, {"measurement": "regulation of PEPCK gene expression", "setting": "[2]; activated by fructose, hypoglycemic conditions, HepG2", "result": "regulated downstream expression"}, {"measurement": "regulation of ChREBP and SREBP genes", "setting": "[2]; activated by fructose, normoglycemic conditions, HepG2", "result": "regulated the genes"}, {"measurement": "effect of glucose on metabolic gene regulation", "setting": "[2]; addition of glucose instead of fructose", "result": "no effects"}, {"measurement": "effect of glucose on IR autophosphorylation activity", "setting": "insulin receptor; addition of 50 mM glucose", "result": "did not influence its activity"}, {"measurement": "IR autophosphorylation activity relative to KP", "setting": "insulin receptor; in 50 mM fructose", "result": "almost as active as KP"}, {"measurement": "baseline IR autophosphorylation activity", "setting": "insulin receptor; in the absence of fructose", "result": "low"}, {"measurement": "IR autophosphorylation signal", "setting": "insulin receptor; on addition of 50 mM fructose", "result": "robust signal"}]}
{"substance": "insulin detemir", "values": [{"measurement": "per molecule activity relative to human insulin", "setting": "[3]", "result": "fourfold reduced"}]}
{"substance": "GlyA0, D-Cys(GBE1-C)A1, SecA6, SecA11, Lys(DHBA)B28-lispro [GRI-3]", "values": [{"measurement": "glucose-dependent gene regulation", "setting": "[2]; PEPCK, ChREBP and SREBP, HepG2 cells in culture", "result": "glucose-dependent gene regulation"}, {"measurement": "glucose-dependent activity in HepG2 cells in culture", "setting": "insulin receptor", "result": "glucose-dependent activity"}, {"measurement": "monosaccharide dependence of biological activity (pIR/IR phosphorylation)", "setting": "insulin receptor; HepG2 cells", "result": "monosaccharide-dependent biological activity"}, {"measurement": "glucose dependence of pIR/IR phosphorylation", "setting": "insulin receptor; ±50 mM glucose, HepG2 cells", "result": "glucose-dependent IR phosphorylation"}]}
{"substance": "GlyA−1, Cys(GBE1-C)A0, SecA6, SecA11, Lys(DHBA)B28-lispro [GRI-4]", "values": [{"measurement": "glucose-dependent activity in HepG2 cells in culture", "setting": "insulin receptor", "result": "glucose-dependent activity"}, {"measurement": "monosaccharide dependence of biological activity (pIR/IR phosphorylation)", "setting": "insulin receptor; HepG2 cells", "result": "monosaccharide-dependent biological activity"}]}
